Measurements reported in patent publication US20220054617A1 (REGENTS OF THE UNIVERSITY OF MINNESOTA, published 2022).

B1: DENV-4 antigen (other)
chain: SNAIKGMSYTMCSGKFSIDKEMAETQHGTTVVKVKYEGTGAPCKVPIEIRDVNKEKVVGRIISSTPFAENTNSVTNIELEPPFGDSYIVIGVGDSALTLHWFR
B2: DENV-3 antigen (other)
chain: SNALKGMSYAMCTNTFVLKKEVSETQHGTILIKVEYKGEDAPCKIPFSTEDGQGKAHNGRLITANPVVTKKEEPVNIEAEPPFGESNIVIGIGDNALKINWYKK

Columns and labels:
Assay in all cases: size exclusion chromatography of the tetravalent antigen mixture without adjuvant
DENV-2 antigen = DENV-2 antigen (dengue virus serotype 2 (DENV-2), UniProt P14337 573-674)
DENV-3 antigen = target: B2
DENV-4 antigen = target: B1

| Binder | binding result (DENV-2 antigen) | binding result (DENV-3 antigen) | binding result (DENV-4 antigen) |
| --- | --- | --- | --- |
| B1 | no binding | no binding |  |
| B2 | no binding |  |  |
| DENV-1 antigen (other, also called DENV-1 Ag) SNALKGVSYVMCTGSFKLEKEVAETQHGTVLVQVKYEGTDAPCKIPISTQDEKGVTQNGRLITANPIVTDKEKPVNIETEPPFGESYIVIGAGEKALKLSWFK | no binding | no binding | no binding |
